{"source": "patent US20210269501A1"}
{"target": "NKG2D ligands (NKG2DLs) on human TNBC cell lines", "experiment": "cell-based or functional assay", "units": {"cytotoxicity (overnight luminescence based assay, MDA-MB-231 fLuc)": "%"}}
{"substance": "NKG2D_41BB_CD3Zeta CAR (receptor)", "cytotoxicity (overnight luminescence based assay, MDA-MB-231 fLuc)": "> 60"}
{"substance": "NKG2D_CD3Zeta CAR (receptor)", "cytotoxicity (overnight luminescence based assay, MDA-MB-231 fLuc)": "> 60"}
{"substance": "NKG2D_CD27_CD3Zeta CAR (receptor)", "cytotoxicity (overnight luminescence based assay, MDA-MB-231 fLuc)": "> 60"}
